B1: DAPTA (Dala1-peptide T-amide) (peptide)
peptide: ASTTTNYT
modifications: not checked
B2: YSSYR (peptide)
peptide: YSSYR
modifications: not checked
B3: TTSYT (peptide)
peptide: TTSYT
modifications: not checked
B4: SSTYR (peptide)
peptide: SSTYR
modifications: not checked
B5: TSNYS (peptide)
peptide: TSNYS
modifications: not checked
B6: NSSYR (peptide)
peptide: NSSYR
modifications: not checked
B7: NNRYR (peptide)
peptide: NNRYR
modifications: not checked
B8: NSEYR (peptide)
peptide: NSEYR
modifications: not checked
B9: NSNYS (peptide)
peptide: NSNYS
modifications: not checked
B10: TTSYR (peptide)
peptide: TTSYR
modifications: not checked
B11: NSSYT (peptide)
peptide: NSSYT
modifications: not checked
B12: NTSYR (peptide)
peptide: NTSYR
modifications: not checked
B13: SSEYR (peptide)
peptide: SSEYR
modifications: not checked
B14: TISYR (peptide)
peptide: TISYR
modifications: not checked

These binders were tested against human CCR5 receptor (hCCR5) (human), P51681 (assay: inhibition of gp120BaL/sCD4 binding to Cf2Th/synR5 cells (FIG. 4A)).
Sequence of human CCR5 receptor (hCCR5) (human), P51681 (P51681 whole entry): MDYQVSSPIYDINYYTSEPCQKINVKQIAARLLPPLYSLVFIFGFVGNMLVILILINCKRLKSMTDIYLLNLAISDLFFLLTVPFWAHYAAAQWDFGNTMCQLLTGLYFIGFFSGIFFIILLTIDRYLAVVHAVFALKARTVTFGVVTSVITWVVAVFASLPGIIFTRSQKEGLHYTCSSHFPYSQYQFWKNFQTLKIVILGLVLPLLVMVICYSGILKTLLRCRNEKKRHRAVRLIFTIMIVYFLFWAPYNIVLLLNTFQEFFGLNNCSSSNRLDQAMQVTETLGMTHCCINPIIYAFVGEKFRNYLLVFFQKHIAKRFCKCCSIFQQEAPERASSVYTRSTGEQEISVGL

With B1 the IC50 was 0.055 nM.

What follows are binders tested against human CCR5 receptor (hCCR5) (human), P51681 (assay: inhibition of gp120CM235/sCD4 binding to GHOST CD4.CCR5 cells (FIG. 4C)).

Work on B1 yielded an IC50 of 0.051 nM.

These binders were tested against human CCR5 receptor (hCCR5) (human), P51681 (assay: inhibition of gp120CM235/sCD4 binding to Cf2Th/synR5 cells (FIG. 4B)).

B1 showed an IC50 of 0.32 nM.

For B1, the percent inhibition of specific binding was > 80%.

Each binder was assayed against human CCR5 receptor (hCCR5) (human), P51681 (assay: inhibition of gp120/sCD4 complex binding to CCR5-expressing Cf2Th cells by competing peptide).

In order of rising EC50:
1. B6  0.04 nM
2. B3  0.05 nM
3. B8  0.08 nM
4. B4  0.1 nM
5. B10  0.1 nM
6. B12  0.1 nM
7. B5  0.2 nM
8. B7  0.2 nM
9. B11  0.2 nM
10. B13  0.3 nM
11. B14  0.4 nM
12. B9  0.5 nM
13. B2  0.6 nM
